# Laboratory results reported in PMC6379061 (Nature, 2018).
# Target: the molecule itself
# Assay: cryo-EM structure
protein,measurement,value
human ABCG2 E211Q mutant (ABCG2EQ) (natural protein) MSSSNVEVFIPVSQGNTNGFPATASNDLKAFTEGAVLSFHNICYRVKLKSGFLPCRKPVEKEILSNINGIMKPGLNAILGPTGGGKSSLLDVLAARKDPSGLSGDVLINGAPRPANFKCNSGYVVQDDVVMGTLTVRENLQFSAALRLATTMTNHEKNERINRVIQELGLDKVADSKVGTQFIRGVSGGERKRTSIGMELITDPSILFLDQPTTGLDSSTANAVLLLLKRMSKQGRTIIFSIHQPRYSIFKLFDSLTLLASGRLMFHGPAQEALGYFESAGYHCEAYNNPADFFLDIINGDSTAVALNREEDFKATEIIEPSKQDKPLIEKLAEIYVNSSFYKETKAELHQLSGGEKKKKITVFKEISYTTSFCHQLRWVSKRSFKNLLGNPQASIAQIIVTVVLGLVIGAIYFGLKNDSTGIQNRAGVLFFLTTNQCFSSVSAVELFVVEKKLFIHEYISGYYRVSSYFLGKLLSDLLPMRMLPSIIFTCIVYFMLGLKPKADAFFVMMFTLMMVAYSASSMALAIAAGQSVVSVATLLMTICFVFMMIFSGLLVNLTTIASWLSWLQYFSIPRYGFTALQHNEFLGQNFCPGLNATGNNPCNYATCTGEEYLVKQGIDLSPWGLWKNHVALACMIVIFLTIAYLKLLFLKKYS,binding result,binds
